Assay [1] deals with CT-MRAP2, C-terminal domain of MRAP2 fused to a poly-his tag (human) (UniProt Q96G30). Nature of the assay: SDS-PAGE; purified His-tagged CT-MRAP2 resolved by SDS-PAGE under denaturing conditions, anti-His blot.
Assay [2] shares this target. Nature of the assay: native gel or EMSA; blue native PAGE of 20 μg purified C-terminal MRAP2 domain, 3% to 16% Bis-Tris gel, 0 °C, anti-His blot; molecular weights only approximate. (A gel shift assay detects complexes by their altered migration in electrophoresis.)

Broadly, the stoichiometry N is the number of molecules, sites or subunits per partner or assembly. Regarding “CT-MRAP2, C-terminal domain of MRAP2 fused to a poly-his tag (from UniProt Q96G30 76-205) (domain or fragment)”, the stoichiometry N in assay [1] and in assay [2] was 2 throughout.

(Values after PMC8946000.)
